Test results as given in patent US20140178329A1 (INSTITUCIO CATALANA DE RECERCA I ESTUDIS AVANCATS ICREA, published 2014).
Numbering of substitutions follows the chain as printed. Names may count otherwise. Blank lines part the entries; values can stand above or below the binder they belong to.

How the values were obtained:
human TACI-Fc [1] = target: T1, human TACI-Fc (human, UniProt O14836 2-160, limits assumed); experiment: binding test not named (data not shown)
T1 construct: Generated in-house; not shown: Fc portion of human IgG1
T1 sequence (looked up): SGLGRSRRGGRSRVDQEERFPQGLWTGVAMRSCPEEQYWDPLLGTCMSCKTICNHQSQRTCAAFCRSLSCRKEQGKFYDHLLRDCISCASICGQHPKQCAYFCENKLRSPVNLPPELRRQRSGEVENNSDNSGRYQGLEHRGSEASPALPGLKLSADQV

human BCMA-Fc [2] = target: T2, human BCMA-Fc (human, UniProt Q02223 2-54, limits assumed); experiment: binding test not named (data not shown)
T2 construct: Generated in-house; not shown: Fc portion of human IgG1
T2 sequence (looked up): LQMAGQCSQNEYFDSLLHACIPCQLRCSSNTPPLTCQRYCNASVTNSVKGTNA

human TACI-Fc [3] = target: T1, human TACI-Fc; experiment: receptor-binding ELISA, human TACI-Fc coated, doubling dilutions of conditioned medium [TACI-Fc coating]
Method: (§1) FIG. 2: Production and real binding properties of the APRIL mutants. (Panel A) Production of APRIL variants in conditioned medium by transient transfection of 293T cells. Supernatants (10 μl of each) were analyzed by anti-FLAG immunoblotting. Upper panel: mutants predicted to be selective for BCMA. Lower panel: mutants predicted to be selective for TACI. All mutants were checked more than three times following independent rounds of transfection to assess their expression. (Panels B and C) Receptor binding ELISA to compare binding of the predicted BCMA- and TACI-specific APRIL variants to human BCMA-Fc and TACI-Fc. Bars, from left to right, represent doubling dilutions of the conditioned media starting from undiluted media. Relevant APRIL variants are shown with dark grey bars, WT APRIL with black bars and other variants with light grey bars. This is representative of three separate experiments performed with independent APRIL-containing cell-conditioned media.
(§2) The relative binding of the variants to either BCMA or TACI, was tested using a binding ELISA. […] Bound APRIL was detected with 1 μg/ml of HRP-coupled anti-FLAG M2 and visualized with 2,2′-azino-bis(3-ethylbenzothiazoline-6-sulphonic acid (ABTS) (Sigma-Aldrich). The absorbance was read at 405 nm using a UV-VIS microplate reader (BioRad, Veenendaal, The Netherlands).

[4] = target: T3, mouse TACI-Fc (R&D Systems) (mouse; human, UniProt Q9ET35 5-129, limits assumed); experiment: receptor-binding ELISA, mouse TACI-Fc coated [TACI selective, Ms TACI-Fc coated]
T3 construct: Bought; also called mTACI-Fc; murine TACI-Fc; not shown: Fc portion of human IgG1
T3 sequence (looked up): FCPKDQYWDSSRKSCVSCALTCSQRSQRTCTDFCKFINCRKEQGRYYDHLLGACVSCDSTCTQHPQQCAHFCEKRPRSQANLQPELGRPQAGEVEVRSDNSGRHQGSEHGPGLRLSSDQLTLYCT
Method: (§3) The relative binding of the variants to either BCMA or TACI, was tested using a binding ELISA. The following proteins were used: human BCMA-Fc, human TACI-Fc (both generated in-house), mouse BCMA-Fc (R&D Systems, Abingdon, UK), mouse TACI-Fc (R&D Systems); in all cases the Fc portion is from human IgG1. BCMA-Fc and TACI-Fc were coated on 96-well Nunc Maxisorp plates (Thermo Fischer Scientific, Roskilde, Denmark) at concentrations of 1 μg/ml and 2 μg/ml, respectively, in 0.5 M sodium bicarbonate buffer pH 9.5, overnight at 4° C. Plates were then blocked with 5% BSA for one hour at 37° C. Soluble APRIL variants in the form of tissue culture conditioned medium were then added to the plate for two hours at 37° C. Following APRIL binding, plates were washed three times with PBS, 0.05% TWEEN®20. Bound APRIL was detected with 1 μg/ml of HRP-coupled anti-FLAG M2 and visualized with 2,2′-azino-bis(3-ethylbenzothiazoline-6-sulphonic acid (ABTS) (Sigma-Aldrich). The absorbance was read at 405 nm using a UV-VIS microplate reader (BioRad, Veenendaal, The Netherlands).

human BCMA-Fc [5] = target: T2, human BCMA-Fc; experiment: receptor-binding ELISA, human BCMA-Fc coated, doubling dilutions of conditioned medium [BCMA-Fc coating]
Method: as §1, §2

[6] = target: T4, mouse BCMA-Fc (R&D Systems) (mouse; human, UniProt O88472 2-49, limits assumed); experiment: receptor-binding ELISA, mouse BCMA-Fc coated [TACI selective, Ms BCMA-Fc coated]
T4 construct: Bought; also called mBCMA-Fc; murine BCMA-Fc; not shown: Fc portion of human IgG1
T4 chain (looked up): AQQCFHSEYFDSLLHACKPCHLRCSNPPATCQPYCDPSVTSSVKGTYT
Method: as §3

human TACI-Fc [7] = target: T1, human TACI-Fc; experiment: SPR (Biacore 2000), FLAG-APRIL captured by anti-FLAG M2, receptor-Fc injected, single cycle kinetics, 1:1 fit; SPR (BIAcore), mean ± error of fits; weak but measurable binding
Method: (§4) FIG. 10: Surface Plasmon Resonance sensorgrams to illustrate binding of TACI-Fc and BCMA-Fc to WT and R206E-APRIL. Sensorgrams of human (Panel A) and mouse (Panel B) receptors binding to WT and R206E-APRIL. Stepwise increments in the curves represent sequential injections of receptor at the following concentrations: […]. In some cases, no value for affinity was calculated due to a low binding response or high drift.
In order to further assess the binding properties of the mutants and to measure apparent affinities and kinetics of receptor binding, a Surface Plasmon Resonance based receptor binding assay was performed on a Biacore 2000 (GE Healthcare, Diegem, Belgium). Anti-FLAG-M2 monoclonal antibody (Sigma-Aldrich) was diluted at a concentration of 5 μg/ml in 10 mM sodium acetate pH 4.5 and covalently immobilized (approx 1500 RU) to a CM-5 sensor chip (GE Healthcare), using standard amine coupling chemistry according to manufacturer's guidelines (Amine coupling kit, GE Healthcare). The different FLAG-APRIL variants in the form of tissue culture supernatants were captured onto the chip via the FLAG-tag at 10 μl/minute for five minutes, giving capture levels ranging from 159 to 207 RU. As a reference lane, one of the flow cells was left free of soluble FLAG-APRIL, to control for any background binding. BCMA- or TACI-Fc were then injected for three minutes over all four flow cells at 30 μl/minutes at increasing concentrations (ranging from 1-50 nM) using the single cycle kinetics method at 25° C. Dissociation was monitored for five minutes. The resulting curves were fitted using a 1:1 Langmuir model using BIAevaluation software 4.1. For each combination of FLAG-APRIL and BCMA- or TACI-Fc, the apparent kₐ, kd and KD were calculated from a global fit of binding curves from at least three separate experiments. Non-specific binding in the reference cell was subtracted before curve fitting. […]

human BCMA-Fc [8] = target: T2, human BCMA-Fc; experiment: SPR (Biacore), affinities of R206E for BCMA-Fc and TACI-Fc compared
Method: as §4
In order to further assess the binding properties of the mutants and to measure apparent affinities and kinetics of receptor binding, a Surface Plasmon Resonance based receptor binding assay was performed on a Biacore 2000 (GE Healthcare, Diegem, Belgium). Anti-FLAG-M2 monoclonal antibody (Sigma-Aldrich) was diluted at a concentration of 5 μg/ml in 10 mM sodium acetate pH 4.5 and covalently immobilized (approx 1500 RU) to a CM-5 sensor chip (GE Healthcare), using standard amine coupling chemistry according to manufacturer's guidelines (Amine coupling kit, GE Healthcare). […] Dissociation was monitored for five minutes. […] For each combination of FLAG-APRIL and BCMA- or TACI-Fc, the apparent kₐ, kd and KD were calculated from a global fit of binding curves from at least three separate experiments. […]

[9] = target: T4, mouse BCMA-Fc (R&D Systems); experiment: SPR (Biacore 2000), FLAG-APRIL captured by anti-FLAG M2, receptor-Fc injected, single cycle kinetics, 1:1 fit
Method: as §4
(§5) In order to further assess the binding properties of the mutants and to measure apparent affinities and kinetics of receptor binding, a Surface Plasmon Resonance based receptor binding assay was performed on a Biacore 2000 (GE Healthcare, Diegem, Belgium). Anti-FLAG-M2 monoclonal antibody (Sigma-Aldrich) was diluted at a concentration of 5 μg/ml in 10 mM sodium acetate pH 4.5 and covalently immobilized (approx 1500 RU) to a CM-5 sensor chip (GE Healthcare), using standard amine coupling chemistry according to manufacturer's guidelines (Amine coupling kit, GE Healthcare). The different FLAG-APRIL variants in the form of tissue culture supernatants were captured onto the chip via the FLAG-tag at 10 μl/minute for five minutes, giving capture levels ranging from 159 to 207 RU. As a reference lane, one of the flow cells was left free of soluble FLAG-APRIL, to control for any background binding. BCMA- or TACI-Fc were then injected for three minutes over all four flow cells at 30 μl/minutes at increasing concentrations (ranging from 1-50 nM) using the single cycle kinetics method at 25° C. Dissociation was monitored for five minutes. The resulting curves were fitted using a 1:1 Langmuir model using BIAevaluation software 4.1. For each combination of FLAG-APRIL and BCMA- or TACI-Fc, the apparent kₐ, kd and KD were calculated from a global fit of binding curves from at least three separate experiments. Non-specific binding in the reference cell was subtracted before curve fitting. Regeneration of the anti-FLAG antibody surface was carried out with a 10-minute injection at 30 μl/minute of a mixture of ⅓ volume of TBS pH 11.5, ⅓ volume of Ionic solution and ⅓ volume of water. The Ionic solution was comprised of KSCN (0.46 M), MgCl₂ (1.83 M), urea (0.92 M) and guanidine-HCl (1.83 M).

human BCMA-Fc [10] = target: T2, human BCMA-Fc; experiment: as above
Method: as §4, §5

- binding result (human TACI-Fc [1]): no binding
- binding result (human BCMA-Fc [2]): no binding
B2: APRIL T175D-D205Y double mutant (ligand)
chain: AVLTQKQKKQHSVLHLVPINATSKDDSDVTEVMWQPALRRGRGLQAQGYGVRIQDAGVYLLYSQVLFQDVDFTMGQVVSREGQGRQETLFRCIRSMPSHPYRAYNSCYSAGVFHLHQGDILSVIIPRARAKLNLSPHGTFLGFVKL
notes: also called T175D-D205Y/K; not shown: FLAG tag

- binding result (human TACI-Fc [1]): no binding
- binding result (human BCMA-Fc [2]): no binding
B3: APRIL T175D-R206E double mutant (ligand)
chain: B2 chain with Y101D, R102E
notes: not shown: FLAG tag

- binding result [4]: no binding
- binding result [6]: no binding
B4: APRIL-R231A (FLAG-tagged soluble variant) (ligand)
chain: B2 chain with D71T, Y101D, R127A
notes: also called receptor-dead R231A variant; not shown: FLAG tag
- binding result (human TACI-Fc [3]): no binding (tested: undiluted conditioned medium)
- binding result (human BCMA-Fc [5]): no binding (tested: undiluted conditioned medium)

The remaining lines, values behind:

B1: APRIL T175D-D205K double mutant (ligand)
chain: B2 chain with Y101K
notes: as for B2
- binding result (human TACI-Fc [1]): no binding
- binding result (human BCMA-Fc [2]): no binding

B5: APRIL-R206E (FLAG-tagged soluble variant) (ligand)
chain: B2 chain with D71T, Y101D, R102E
notes: Used as conditioned medium; also called R206E-APRIL; not shown: FLAG tag
- Kd (human TACI-Fc [7]): 11 nM
- koff (human TACI-Fc [7]): 0.01 s⁻¹
- kon (human TACI-Fc [7]): 2e+06 M⁻¹ s⁻¹
- fold selectivity for BCMA over TACI (comparison of affinities) (human BCMA-Fc [8]): 25 fold
- Kd [9]: 0.095 nM
- koff [9]: 0.00015 s⁻¹
- kon [9]: 1.6e+06 M⁻¹ s⁻¹
- Kd (human BCMA-Fc [10]): 0.46 nM
- koff (human BCMA-Fc [10]): 0.00015 s⁻¹
- kon (human BCMA-Fc [10]): 330000 M⁻¹ s⁻¹
